From article PMC8635974 come the findings set out here.

The assay addresses M3R-YFP (muscarinic acetylcholine receptor M3 with YFP fused C-terminally) (UniProt P20309). Kind of assay: FRET or BRET; single-cell FRET in HEK293T cells transfected with M3R-YFP, Gαq, Gβ1 and mTurquoise2-Gγ2; laminar superfusion with buffer (137 mM NaCl, 5.4 mM KCl, 2 mM CaCl2, 1 mM MgCl2, 10 mM HEPES, pH 7.3) or agonist (ACh 30 µM, Metha, Fur, Are, Guva, Pilo, Mda one after the other in the same cell); amplitudes normalized to ACh; room temperature.
Chain of UniProt P20309 (P20309 whole entry, the tested form may be a part): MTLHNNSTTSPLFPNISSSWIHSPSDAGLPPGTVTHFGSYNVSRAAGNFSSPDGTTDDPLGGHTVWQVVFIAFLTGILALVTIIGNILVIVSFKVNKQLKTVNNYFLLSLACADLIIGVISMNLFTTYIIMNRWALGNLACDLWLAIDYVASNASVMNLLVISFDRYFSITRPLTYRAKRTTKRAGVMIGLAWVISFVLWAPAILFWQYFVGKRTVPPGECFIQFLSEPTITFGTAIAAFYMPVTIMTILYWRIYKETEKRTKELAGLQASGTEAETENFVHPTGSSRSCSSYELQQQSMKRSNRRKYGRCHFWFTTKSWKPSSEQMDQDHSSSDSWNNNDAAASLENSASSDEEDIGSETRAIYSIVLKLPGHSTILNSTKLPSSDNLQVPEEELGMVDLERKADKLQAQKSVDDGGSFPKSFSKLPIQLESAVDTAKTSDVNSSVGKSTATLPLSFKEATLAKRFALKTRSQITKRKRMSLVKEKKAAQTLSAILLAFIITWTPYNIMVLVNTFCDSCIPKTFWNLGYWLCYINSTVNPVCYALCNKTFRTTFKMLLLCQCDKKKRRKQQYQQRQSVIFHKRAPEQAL

Substance “Gq protein (Gαq, Gβ1 and mTurquoise2-Gγ2) (from UniProt P50148 1-359; P62873 1-340; P59768 1-71) (complex; other documents disagree on this pair)” registered an FRET amplitude with Are as agonist, relative to ACh (% of the ACh signal) of 20; an FRET amplitude with Fur as agonist, relative to ACh (% of the ACh signal) of 60; an FRET amplitude with Guva as agonist, relative to ACh (% of the ACh signal) of 20; an FRET amplitude with Mda as agonist, relative to ACh (% of the ACh signal) of 8. The FRET amplitude with Metha as agonist, relative to ACh (% of the ACh signal) is 60 and the FRET amplitude with Pilo as agonist, relative to ACh (% of the ACh signal) was determined as 8.
